Source: paper PMC6894070, “The Plasmodium falciparum Hsp70-x chaperone assists the heat stress response of the malaria parasite” (The FASEB Journal, 2019)

Biological target: Plasmodium falciparum Hsp70-x (PfHsp70-x), full-length construct aa 25-679 (P. falciparum) (UniProt K7NTP5)

J-domain of P. falciparum Hsp40 cochaperone PFE0055c (PFE0055cJ), aa 77-148 (domain or fragment)
apparent dissociation constant from titrating the cochaperone in ATP hydrolysis assays (5 μM chaperone, single-site binding fit): 3 µM
